# According to the supplement of paper PMC9732359:
# ± gives the uncertainty stated by the source.
# Experiment: protein stability index of a GFP-peptide fusion (yeast GPS) (PSI 1-4); higher = more stable; sorted into four equal gates, so the index is relative within each strain
# Details: pdr5∆
# How it was run: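 Plasmids isolated from each sorting gate were PCR-amplified and Illumina-sequenced, and barcodes assigned the reads to strains. The gates, four of equal size, were set by GFP/Cherry fluorescence ratio on mid-log cultures in leucine-free medium. These cultures were yeast carrying a pooled library of tiled 17-residue yeast protein peptides fused downstream of GFP on a plasmid that also expresses Cherry. The protein stability index is the sum of every gate's read frequency times its gate number.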
row,Sequence,protein stability index
1,TNQLVLLQKMLNLLNYQ [YML103C/NUP188],1.43 ± 0.03
2,TNSNNTPLQSQLNLNNL [PGD1],3.01 ± 0.059
3,TNTFEGSGNNNEIESRQ [SNU114],3.48 ± 0.17
4,TNWDDHAIIIFGYPETI [YMR153W/NUP53],2.63 ± 0.048
5,TPAEMSRPATTTRNGFM [FAS2],2.57 ± 0.041
6,TPESVKPANASHAIRLG [RGR1],2.42 ± 0.037
7,TPFSFGTANNNSNTTNQ [YJL041W/NSP1],3.21 ± 0.045
8,TPGSVSLSAYNLTDEGY [PRP8],2.5 ± 0.077
9,TPLKARQREMAEEQTKL [YLR018C/POM34],3.36 ± 0.093
10,TPLQSQLNLNNLTPANI [PGD1],3.11 ± 0.053
11,TPLRDEVTDKNYYYLFD [PRP8],2.55 ± 0.049
12,TPMDESSYDLLFNESFI [SRP72],2.98 ± 0.1
13,TPRGNHWMGSSVSGSPR [YMR129W/POM152],3.39 ± 0.077
14,TPSTEESRAQNVFGQDN [SWI3],2.77 ± 0.093
15,TPVSHNDDLYGKVTDVR [RPL1A],3.04 ± 0.096
16,TPVVLATPIPEEVQQAQ [RPS5],2.43 ± 0.16
17,TPYSNESGLVNADLDVK [RPO21],2.96 ± 0.073
18,TQAKRIFLQQFLQELLK [SWI1],2.42 ± 0.092
19,TQKTELEIDNKDSVTEC [SIR4],3.15 ± 0.12
20,TQLDDLQHELMISIIKL [YML103C/NUP188],2.29 ± 0.1
21,TQMDGFDQSTNVKVIMA [RPT3],2.35 ± 0.06
22,TQTFNGSIFTHETTFMT [YML031W/NDC1],2.79 ± 0.066
23,TQYKAGKASLFAQGKRR [RPL42A],3.04 ± 0.07
24,TRAKAKVEEMNNIIAAS [RPL36A],3.18 ± 0.14
25,TRAQYLAFAKLVHSEYL [SRP68],1.87 ± 0.063
26,TRDVEPENLQVTSEKYP [BRR2],3.35 ± 0.18

row,Sequence,protein stability index
1,TREKVLEDKLRAVLTPL [RRP46],3.05 ± 0.11
2,TRKILEILNECHDELKA [MED4],2.5 ± 0.13
3,TRLKSLLKPFHVKVNDK [SIR3],2.96 ± 0.082
4,TRLVQLREFRITHNTNI [GRR1],1.16 ± 0.06
5,TRRKRRQGRSNRRGMLA [SNF5],2.71 ± 0.14
6,TSAASGDAAPAEEAAAE [RPP0],3.44 ± 0.13
7,TSANGIVQFTYGGDGLD [RPO31],2.77 ± 0.092
8,TSAVELGAIEQILIFAA [YJL039C/NUP192],2.77 ± 0.071
9,TSELGNDDFSEVFEFKT [BRR2],3.08 ± 0.097
10,TSLATSAGQPNLLLSAS [ASC1],1.93 ± 0.06
11,TSLKCLVNRKPIPFEFQ [SNF2],2.21 ± 0.043
12,TSLLDSLISVLEASLNS [YJL039C/NUP192],1.77 ± 0.09
13,TSPTMPDYYVSILSFVD [RPT2],2.31 ± 0.05
14,TSRKALEEVSLKWIDTA [RPL3],1.89 ± 0.094
15,TSSTHERKSKTYVITKN [RET1],2.66 ± 0.08
16,TSTEKLYKLNDKIAVAV [PRE9],2.93 ± 0.081
17,TSTGIIRCHREDCDLVI [POP5],2.96 ± 0.077
18,TSTNGDSENNEENSSSN [RGR1],3.18 ± 0.11
19,TSYKKWSFDLPEMSNLY [PRP8],2.52 ± 0.05
20,TTARAKARAKKTKKEKG [RPN2],3.63 ± 0.2
21,TTDDKSMDTKKKHKQKK [BRN1],3.32 ± 0.09
22,TTDKLRSMVRKWQTLIE [RPS1A],2.46 ± 0.15
23,TTGSIFEKDLMAYFDEN [BRN1],3.15 ± 0.055
24,TTLKLSPSPILLTSAGC [NUT1],1.42 ± 0.039
25,TTPEINNFIVERVQSDE [SRP68],3.38 ± 0.14
26,TTSEATANDRQINNVHL [RPN4],2.91 ± 0.079

row,Sequence,protein stability index
1,TTSERVSNENKKNIDYQ [RRI1],3.03 ± 0.09
2,TTSLNPIQSKVFHAAFE [BRR2],2.56 ± 0.071
3,TTTRIQSQQAQPSDVMF [MED2],2.79 ± 0.057
4,TTTVLKRYANHTQDIIG [RET1],2.75 ± 0.093
5,TTYSVDDYYKEIIGGGS [ISW2],3.02 ± 0.13
6,TVDLALFGSPPFILEYD [YMR129W/POM152],2.49 ± 0.047
7,TVELQVGLKNYDPQRDK [RPL1A],3.12 ± 0.082
8,TVPELEIPTQIYRTTRQ [ARP9],2.8 ± 0.066
9,TVTIASSLNLEDTPAND [RPB8],2.81 ± 0.054
10,TYGVPGSENKRGSLDSE [NUT1],3.25 ± 0.11
11,TYLLKNDLVKARDLLDD [RPN9],2.78 ± 0.11
12,TYNEDIPVEILVRRLSD [PRE9],2.84 ± 0.077
13,TYNMIDAAAEKRNGDEV [ARP7],3.03 ± 0.07
14,VAARAEILRIHSRKMNL [RPT6],2.53 ± 0.054
15,VAIACDLRLGSQSLGVS [PUP3],2.75 ± 0.26
16,VARIYASFNDTFVHVTD [RPS14A],1.73 ± 0.04
17,VASQSPHATATEKEPVP [SNF6],3.06 ± 0.061
18,VASRHPSESEHPIRVLM [YDL116W/NUP84],3 ± 0.25
19,VCFNNLVDENTDYLYRR [YCS4],2.56 ± 0.05
20,VDIEYTRGRNIIMHKDV [RET1],2.55 ± 0.13
21,VDPVYKDVAKPTGPKTA [FAS2],3.05 ± 0.1
22,VDREAMLKPNIIFQQLL [YCG1],2.78 ± 0.19
23,VDRSKYNIELPLPPRID [RPT1],3.58 ± 0.26
24,VDVAKDINVKDLKASQR [RPT6],3.13 ± 0.11
25,VDVELITSINVENDTFI [FAS2],3.37 ± 0.069
26,VDVFAMPQSGTGVSVEA [RPN11],3.41 ± 0.13

row,Sequence,protein stability index
1,VEAQSHRLTLEDPVTVE [PRE6],3.88 ± 0.25
2,VEDVSQNAADLQQICRV [RPL9A],3.42 ± 0.047
3,VEEYTWSSLLNEGLVEY [RPB2],3.2 ± 0.18
4,VEGPKFTIDAKPPISDS [YLR335W/NUP2],3.47 ± 0.058
5,VELLDSNDRVNPLIELT [ITC1],2.5 ± 0.11
6,VEVKDASLVDYVQVRQP [RPS5],3.41 ± 0.17
7,VFHAAFEGDSNMLICAP [BRR2],2.41 ± 0.042
8,VFLSNLVETCLNDLVES [BRR2],1.98 ± 0.04
9,VFQAKMMDMLKQTGRDQ [RPN11],2.58 ± 0.07
10,VGCKNLERLTLVFCKHI [GRR1],1.91 ± 0.077
11,VGEMKLLKKKDDPSKVR [YLR335W/NUP2],3.32 ± 0.15
12,VGGHNVTIREQINIMPS [SIR3],2.8 ± 0.066
13,VGHLSILPQQSKLKLKN [ECM29],2.31 ± 0.1
14,VGIDTHTATDIYQTLIA [SNF2],2.03 ± 0.048
15,VGKFLGYVSSLVEPSKV [FAS1],2.14 ± 0.072
16,VGKTVKQLIMESQEKYM [NSL1],3.18 ± 0.073
17,VGQAGRPKKITGWITQS [RPN1],2.27 ± 0.075
18,VGRRAANLRVLNSYWVN [RPL15A],1.71 ± 0.072
19,VGVENNGQYAAFVKDMQ [RPC37],2.79 ± 0.15
20,VGVNKDSYLILDTLPSE [RPT5],3.18 ± 0.08
21,VGVVFGSGAANENPYNN [COR1],3.23 ± 0.088
22,VHSSSPSTSSNMDVGNP [GAL11],2.75 ± 0.066
23,VIKRLEASTVPWGDYLQ [BRR2],1.24 ± 0.11
